Assay results as given in the DeepSol protein solubility set.

Assay: soluble on expression in E. coli; label from the status in PepcDB or PDB records
For “MSLVVEQVKPNTGQEVQQIGQLQATKVKLPSTTKVALTKETQYLRNQVIASPVALFEIPADRGQMTLTITSEISDSVFYPHVMIVDAQGQVVESYEEVTFEYRKPRLHLGNRLVAELDFYPPQGYKSLFVLVYTKQQDLKGVTYVAHPARIDAEARGNYLPEVKDIPVPHTLTGTIELDVSGPSFLSFVRSEDRQTTTSTDAAKTQIQVQPDTQTYYFSSIERAVQANDLPKALSLLDEAKALGIEGAQEVFVKAVNARKEGHHHHHH”, the “soluble on expression in E. coli” value was “soluble”.
With “MSLVVFPFKHEHPEVLLHNVRVAAAHPRVHEVLCIGYERDQTYEAVERAAPEISRATGTPVSVRLQERLGTLRPGKGDGMNTALRYFLEETQWERIHFYDADITSFGPDWITKAEEAADFGYGLVRHYFPRASTDAMITWMITRTGFALLWPHTELSWIEQPLGGELLMRREVAAMLYEDERVRRRSDWGIDTLYTFVTVQQGVSIYECYIPEGKAHRLYGGLDDLRTMLVECFAAIQSLQHEVVGQPAIHRQEHPHRVPVHIAERVGYDVEATLHRLMQHWTPRQVELLELFTTPVREGLRTCQRRPAFNFMDEMAWAATYHVLLEHFQPGDPDWEELLFKLWTTRVLNYTMTVALRGYDYAQQYLYRMLGRYRYQAALENGRGHPVPPRAALSTA” the “soluble on expression in E. coli” value was “soluble”.
For “MSLVWKLLGGSKKEFVTPYASLLPDGHTLKEYSDSLVKKTIKAKELGFKAAKLEICIKGPYSHNNLQIEDDREFANMVKLCRKAVGNDMILMADVAYAWPDWKTALIALNMVENEDLFFIETPLPIEDLKGSKKLAEHSKTRIATGEMLQTRFECFETIEKGGIDVIQPDVGRVGGLTEAKRVCDYAEDNGILVVPHCWKSAIGIAASAHLSATTNMCPYIEFLPKELAESQLRKDLVLKELDVVDGQIPLPQQPGLGIEINDDKLKEYGVEGHHHHHH”, the “soluble on expression in E. coli” value was “not soluble”.
For “MSLYLCEEHFKEYFERKVARTIEKYKLASKDERILVAVSGGKDSAVTAYVLKKLGYKIECLHLNLGIGEYSEKSEIYAKKQCEFIGAPLNIIRVKELLGYGIGEVRTSRPTCSYCGLTKRYIMNKFAYDNGFDAVATGHNLDDEASFLMNNLLHWNTEYLAKGGPLLPGEGKFVKKIKPLYELTEREVVAYAIAVGLEYIVEECPYARGATTLDMKEVLNELEEKRPGTKFNFVRGFLRKKKLFEPEVKGKDLKECKICGMPASGEICSFCKFWKLGKPLTFKIKEGHHHHHH”, the “soluble on expression in E. coli” value was “soluble”.
For “MSLYQRCFDNASETLFVAGKTPRLSRFAFSDDPKWESGHHVHDNETELIYVKKGVARFTIDSSLYVAHADDIVVIERGRLHAVASDVNDPATTCTCALYGFQFQGAEENQLLQPHSCPVIAAGQGKEVIKTLFNELSVILPQSKNSQTSSLWDAFAYTLAILYYENFKNAYRSEQGYIKKDVLIKDILFYLNNNYREKITLEQLSKKFRASVSYICHEFTKEYRISPINYVIQRRMTEAKWSLTNTELSQAEISWRVGYENVDHFAKLFLRHVGCSPSDYRRQFKNCFAEQEILSEFPQPVSLVGEGGSHHHHHH”, the “soluble on expression in E. coli” value was “soluble”.
With “MSLYQSIVFIARNVVNSITRILHDHPTNSSLITQTYFITPNHSGKNISFHLFHDFKYCSADTRHYSQLIIFPVKENSRPTQVSRPLGGRPHESVFLPKFTRTQNSYCLTRLDRMGFPPPRKASTIMHFFQDDRTVMCSPKDGIPVSSFHIMICFLERRKGN” the “soluble on expression in E. coli” value was “soluble”.
For “MSLYSIIDIETTGGHASGNRIIEIAIYKFDGEKITDTYQTLINPERRIPVFITSLTGIDTEMVADAPVFADVAREITDFTRDSVFVAHNVNFDYTFVKKELQALNMPYNLPKLCTVRLSRKIFPGLPSYSLGNLCGSLGIDVQNRHRAAGDAEATVRLLNKLLLNDTEGFIPKSLKKNSKETLLPANLPREQFDALPETFGVYYFHDHKGKVIYVGKANNIKKRVISHFSGKQQNQKSQQFMQAIYGLSYEVCGSELLSLLLESHEIKKYFPVYNSIQKFGEKNYGIYQYEDNAGFIRLSIAKVNKLQHPLISFRYISEARTFLLEKVRTFQLCHRRSGLQTAPCSDVELCTACKGTTRSTAYNVKMKRALATFEHPDHSYIIKQPGRTRDEYAVIVVEAGRYLGYAYIPADLSGSTIEELKPFVNRHPDNRDIQKILAMHQRKSMVIAVEGHHHHHH”, the “soluble on expression in E. coli” value was “not soluble”.
In the case of “MSLYTVLVADDKEVFRRKVKRMPYFQDHKEKFAIRYEAQNGLEALEILRSHDVDMVLTDIRMPFIDGIELLKHVNAENLCKCVILLSEFAEFNYAKAGILNGAFDYVLKPVDDEKIQETFDRAYNYLTTINAAVNAQTQRIETLARLMLAGDRMNALAYAKHIGAGLQAHGAITGERIVQANDTLAQLNKYILQKRPFLHYYLPFDELCCLDAKKTTPGKISDAFNACVSTVMDAIEPFCVQSTNELVGRTCQLVLEKLDSKVSLHGIADNLYVNPKYLGALFKKETGRSFVDYVTFARMERAKMLLRNPTLKVYEVAAQLGYDDVDYFSKVFKKLTAESPSIYREMRKEGHHHHHH”, the “soluble on expression in E. coli” value is reported as “soluble”.
With “MSMEFDAVIIGGGVSGCATFYTLSEYSSLKRVAIVEKCSKLAQISSSAKANSQTIHDGSIETNYTPEKAKKVRLSAYKTRQYALNKGLQNEVIFETQKMAIGVGDEECEFMKKRYESFKEIFVGLEEFDKQKIKELEPNVILGANGIDRHENIIGHGYRKDWSTMNFAKLSENFVEEALKLKPNNQVFLNFKVKKIEKRNDTYAVISEDAEEVYAKFVLVNAGSYALPLAQSMGYGLDLGCLPVAGSFYFVPDLLRGKVYTVQNPKLPFAAVHGDPDAVIKGKTRIGPTALTMPKLERNKCWLKGISLELLKMDLNKDVFKIAFDLMSDKEIRNYVFKNMVFELPIIGKRKFLKDAQKIIPSLSLEDLEYAHGFGEVRPQVLDRTKRKLELGEKKICTHKGITFNMTPSPGATSCLQNALVDSQEIAAYLGESFELERFYKDLSPEELENLEHHHHHH” the “soluble on expression in E. coli” value was “soluble”.
For “MSMSVILRKSLIEVLNKKNEKKKDVAREISTSQQSLSDWTSQNNVKPVTIENALRLSDHFRDSTFTMEVIHQFFGMFKTCDGDVYRKDPSSLDRLQKIESNERKALKHDIERIVLKNPEYLSEQDISKIVAYANEYLDEVIVEITLLSSLCDLASIDIRYLSEQRFPYWEQLGYMRKENTNGTRSY”, the “soluble on expression in E. coli” value was “not soluble”.
In the case of “MSMTVTTYLPIEAIKQQFCQSLDEQNTLILSAPPGAGKSTCLPLWLLTLPSLANKKIYLLQPRRLAVKNIATFLAAQLKEKVGETVGYRLRNDSKTSTSTRLEVITEGILTQIIQKDAELLGTALVVFDEFHERSLQGDLAFALTREVQTELRDDLKILLMSA”, the “soluble on expression in E. coli” value is reported as “not soluble”.
In the case of “MSNCEIIAVHGGACAKFDASLAEDCRFACGTGTVENALTDLERIEKFNCGFGSHLTIDQEVECEASYMSSKNLSFGAVGAISNVFHPSRVARHLAHSNWWKQRRLLHPLILVGRGAEKYAVKNDFPTCTPEELVSKAAKESFEKYLHRMLHPYDTHDTVGAISINTNTMNSESGTSSGGIVLKHSGRLGHSCVYGSGTWSERRQYEEPFDQVSERTISICSTGHGESLVKADFCRGIATRVLDDEEGIMYSEIIREFIHEKMEHGSRYGGIALIADKFKDRMSLEFLIFHNCRYLPAAVRCRDNQIRVFESQFDPDQCTTDPKCVIESFIM”, the “soluble on expression in E. coli” value is reported as “not soluble”.
With “MSNDQSAMNELHWLIDMVQTIEVGLVVLDRDYNIQLWNGFMENHSGVSPNSIKGQNLFSRFPDLPATWLKQKMESVFMLKNRAFISWEQRPYVFQFKNYRPITGRADFMYQNVTLLPLASLTGKITHISVIVYDVTDIAVNKLEHHHHHH” the “soluble on expression in E. coli” value was “soluble”.
In the case of “MSNEEARSAGDLRNTGLSLRHDRTWDYELDRIVDEVERKDAEKVGLQFPEGLKRRGPAVADDLRARLDDTRIMLSGQPCYGACDLDTYLMRRTDVFVHFGHSPMKESDSIIYVPLFSNVDVEPIMQEARDELHDGDVGLVTTAQHMNQFEEMRTWLEERGYTVHTRRGDDRLTNEGQVLGCNYASADIDADQVLYVGGGKFHPLGLAMEHPEKNVVIADPVNNAVSIADAEQFLKERYASVHKAMDAEQWGVIFCTKIGQGRFDQAEEIVENNDNAYLITMDEVTPDRLMNFDMDAFVNTGCPRITTDDGPQFHKPMLTPGEYEIAVGNKPLEDLSFDTFHGTWLEHHHHHH”, the “soluble on expression in E. coli” value is reported as “not soluble”.
For “MSNEIYTAITIGPICKTLDKARSVKSFWTASYLFSWIMRELLERLPKEERPEGSFEVLSPHRDGKDVPEETSKKVGLFPDRLFAKGELEEEKLQEIKGKIFIELAEKFKNAFQDEKDGITRKIDTESDPKRKRELEEIQSRYSNAALKGEDIRKYLENYLSISCITVELSSDCNILEQLNSYLDTQELFNKASIQTDEDYMELFIEAPNNPFLKAYSQDRAFPSTSEIAVSGWEQDPPKDENGEVEYTQLTSKPGFRNCYKYLAVIKADGDGFGTYIKELKVDEEKEIKENGEKENELSRFTKSFFEFSVEVANELIQKTKAIPVYIGGDDLFLFAPVLEGNVEKDVFNLIKEIDDLFIQKEIGEGLSMSYGVSIFYYKSPMSEAIDIADSMLRKAKEEKEEKEKKKDTVAISIQKHSGQKIEFLLPCKHSTDKCKQETGLYKKATELIRAFKEDDSMLNSLIYWIEDMYETIFTDEVTLYQERINAVFDNFFDEEIHKENEVFFDLLKKFIHSMHHSEDTPRKLKDKKKLLHGILRYCQFVTAKKEK”, the “soluble on expression in E. coli” value was “not soluble”.
In the case of “MSNENKTIHDFELNLICDFFSNMERQGPGSPEVTLKALSFIDNLTEKSLIADIGCGTGGQTMVLAGHVTGQVTGLDFLSGFIDIFNRNARQSGLQNRVTGIVGSMDDLPFRNEELDLIWSEGAIYNIGFERGLNEWRKYLKKGGYLAVSECSWFTDERPAEINDFWMDAYPEIDTIPNQVAKIHKAGYLPVATFILPENCWTDHYFTPKVAAQKIFLTKYAGNKIAEEFSMLQSIEEELYHKYKEYYGYTFFIAKKIRLLEHHHHHH”, the “soluble on expression in E. coli” value is reported as “soluble”.
With “MSNFWVIALNKNWATLDQVKEAYYYDDVTKEELKEGVDNNLITPEQYQEIVGEAYTSVTLSTELEHHHHHH” the “soluble on expression in E. coli” value was “not soluble”.
For “MSNIFLSLEPKILWSHFYRLTQIPRPSGHEEAVRTYVADVAKRCGLEWLVDEAGNIIVRKPASAGMERRRGVILQAHLDMVPQKNAGTAHDFTKDPIDAVIDGEWVHARGTTLGADNGIGVAAALAVLESDDLRHGPLEALFTVNEEAGMTGALGLKPGVLRGDILLNLDSEDEGELFIGCAGGLDGTMRFDYSCEPLPPGYSGIEIRVSGLRGGHSGMDIDLGRGNANKIMNRLLQMGREHHGLLLASIDGGSLRNAIPRESVALVAVPSAQKVAFLDELHSLASAIGLELNGVDPELRVEAADAALPVGMIDDTVAQRLFDAVAACPNGVHRMSEAMAGLVETSNNLARVHSDGRAVSVECLLRSASVEGMRELADAVAGIAERAGTVAAFENGYPGWKPNPASPILKCMVKVYRDRFGKTPEIRAVHAGLECGIIGANNPQLDMISFGPTIRHPHSPDEKVECSSVLKFWELLVATLEEVPEPLEHHHHHH”, the “soluble on expression in E. coli” value was “not soluble”.
In the case of “MSNIIARFHKIQVQDGVKVWYREAGAAGNPTILLLHGFPTSSNMFRNLIPLLAGQFHIIAPDLPGFGFTETPENYKFSFDSLCESIGYLLDTLSIEKFAMYIFDYGSPVGFRLALKFPSRITGIVTQNGNAYEEGLDDRFWGPLKEYWKSYQSDPVFVKSLIPYLEDPANVICQYHDGVPAIESVDPAAYTLDIALIQRTGQTDIQLRLFFDYQNNIKLYPAFQKFLRDSKIPVLVAWGANDTIFSVAGAEAYRKDVDNLKVVYYDTGHFALETHVVAIAEEIISMFAEN”, the “soluble on expression in E. coli” value is reported as “soluble”.
In the case of “MSNRVVIDHIGASGHGISNISHDSLSVPFTLPGEVAIVALRGKYGKLIALEKKSSERIDAICQHFENCGGCVLQHWHADAYRSWKRQLVIDALKRYGIDVFVSPLIEGGYQNRRRITLTALATQKGHIVGFNRYLSHDVIALEECPVTRLEIMSKLNSIKLLCALVGNHTKRFQVTVTSVENGLDVAFNGCVVRDEHIRQQMIHTALAYGMTRLSVEGEILVEREKPLVYFGDVCVEFPAGGFLQATFEAENIMGNIILAYLEKAKNAVDLFSGLGTFTLRMAKKMNVHAVENNETALANLDRAARFATGLKTITCERRDLFRRPLSAKELSCFECVVFDPPRAGAQEQVRELAKTTIPRVVTISCNPVTFARDLSLLVAGGYTIEKIIPIDQFLWSPHVEIVALLSKRKIKANWKL”, the “soluble on expression in E. coli” value is reported as “not soluble”.
